Assay results published in article PMC9745132, “Visualization of real-time receptor endocytosis in dopamine neurons enabled by NTSR1-Venus knock-in mice” (Frontiers in Cellular Neuroscience, 2022).
Structures can show the parent of a compound that is named as a salt. Each block holds one compound with its values, some of them ahead of it.

Columns and labels:
[1] = test system: hippocampal neurons from Ntsr1^WT/WT mice; assay: Intracellular calcium release (Fluo-4) in hippocampal neurons from Ntsr1^WT/WT mice; type: cell-based, mouse; conditions: 1 μM, maximal calcium response control
[2] = test system: hippocampal neurons from Ntsr1^Venus/Venus mice; assay: Intracellular calcium release (Fluo-4) in hippocampal neurons from Ntsr1^Venus/Venus mice; type: cell-based, mouse; conditions: 1 μM, maximal calcium response control
Protocol: To isolate hippocampal neurons, P0 pups were removed from the cage of NTSR1-Venus homozygous knock-in breeding pairs. Pups were decapitated, brains were removed dorsal side up into fresh ice-cold Hank’s balanced salt solution (HBSS; Gibco, Grand Island, NY, USA), meninges were removed, and hippocampi were dissected into Hibernate A (Gibco, Grand Island, NY, USA) on ice. Tissue dissociation was carried out with the Papain Dissociation System according to the manufacturer’s protocol (Worthington Biochemical Corporation, Lakewood, NJ, USA). Neurons were plated on Poly-D-Lysine (Sigma) coated surfaces at 100,000 cells per 12 mm coverslip (NeuVitro, Camas, WA, USA) in a 24-well plate for immunostaining or 50,000 cells per well of an 8 well chamber slide (Ibidi, Grafelfing, Germany) for calcium measurements. Plating media [Neurobasal A (Gibco, Grand Island, NY, USA), 1% FBS (Fisher Scientific), 2% B-27 (Gibco, Grand Island, NY, USA), 0.5 mM GlutaMAX (Gibco, Grand Island, NY, USA), and 1x Penicillin/Streptomycin (Invitrogen, Waltham, MA, USA)] was exchanged 1 h after plating to maintenance media (Neurobasal A, 2% B-27, 0.5 mM GlutaMAX, and 1x Penicillin/Streptomycin). Half of the volume of media was exchanged for fresh media every 3–4 days. On day in vitro (DIV) 3 Cytosine arabinoside hydrochloride (Sigma) was added to media with a final concentration of 0.1 μM to decrease glial cell proliferation.
Hippocampal neurons were grown until DIV 7. Fluo-4 NW Calcium Assay kit (Thermo Fisher) was used according to the manufacturer’s protocol. Briefly, drugs were prepared at 4 μM stock solutions in the assay buffer provided without probenecid. […] Fluorescence was imaged with a 10x objective on an (Olympus, Shinjuku City, Tokyo, Japan) IX73 microscope (Fluo-4 em. 506 nm).
Live imaging settings of Fluo-4 were as follows, 79 ms exposure, 2 s intervals for 90 cycles (180 s). […] First regions of interest (ROI) were automatically determined using the analyze particles plug in. […] Relative fluorescence is defined as F/F0 where F corresponds to the cell fluorescence and F0 to the basal fluorescence.

[3] = biological target: T1, NTSR1-Venus (Mus musculus, UniProt O88319); assay: Multiphoton imaging of NTSR1-Venus internalization in acute SN/VTA brain slices; type: cell-based; conditions: 1 μM during slice recovery and imaging, 60 min
T1 construct: monitoring endogenous NTSR1-Venus receptor endocytosis could differentiate NTSR1 agonists; endogenous in cells; host or cells: primary hippocampal neurons from homozygous NTSR1-Venus knock-in mice (C57BL/6N background)
T1 sequence (O88319 whole entry): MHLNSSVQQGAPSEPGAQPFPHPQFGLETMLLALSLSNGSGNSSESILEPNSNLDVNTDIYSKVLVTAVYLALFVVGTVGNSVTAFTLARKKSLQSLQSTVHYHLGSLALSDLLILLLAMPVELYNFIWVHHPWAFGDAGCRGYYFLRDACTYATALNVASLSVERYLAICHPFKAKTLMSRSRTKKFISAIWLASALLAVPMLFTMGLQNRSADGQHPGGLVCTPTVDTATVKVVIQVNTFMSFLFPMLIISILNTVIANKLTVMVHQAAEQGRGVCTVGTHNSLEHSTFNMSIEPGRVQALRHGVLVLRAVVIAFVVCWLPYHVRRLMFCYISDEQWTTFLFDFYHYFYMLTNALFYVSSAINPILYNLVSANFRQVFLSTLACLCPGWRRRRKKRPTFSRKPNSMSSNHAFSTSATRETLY
Protocol: Male and female Ntsr1^Venus/Venus mice aged 5 weeks were anesthetized, and 250 μm-thick coronal slices containing substantia nigra pars compacta and ventral tegmental area were prepared. Cutting solution contained (in mM): 87 NaCl, 25 NaHCO3, 25 glucose, 75 sucrose, 2.5 KCl, 1.25 NaH2PO4, 0.5 CaCl2, and 7 MgCl2; bubbled with 5% CO2/95%O2; 4°C. Following cutting, slices were incubated in the same solution for 30 min at 33°C. For control experiments, slices were subsequently incubated in the same solution at room temperature until imaging. For antagonist experiments, slices were subsequently incubated in cutting solution with 1 μM SR48962 until imaging. SR48962 was prepared as a 1 mM stock in water.
Imaging solution referred to as aCSF contained (in mM): 125 NaCl, 2.5 KCl, 2 CaCl2, 1 MgCl2, 25 NaHCO3, 1.25 NaH2PO4, 25 glucose; bubbled with 5% CO2/95% O2; 31–34°C, ∼310 mOsm. For antagonist-only experiments, 1 μM SR48962 was added to the imaging solution. For antagonist plus agonist experiments, a baseline image was taken with no NTSR1 agonist or antagonist in the imaging solution, and subsequently, 10 μM PD149163 [prepared from a stock solution in water] was added to the imaging solution. As a precautionary measure, all components that were exposed to antagonist were rinsed first with 70% ethanol and then water. All components that were exposed to agonist were replaced between experiments.
For two-photon laser scanning microscopy (2PLSM), a 2-photon source (Coherent Ultra II, Santa Clara, CA, USA) was tuned to 920 nm for imaging. […] Both epi and transfluorescence were detected with R9110 photomultiplier tubes (Hamamatsu, Shizuoka, Japan). Laser power measured at the focal plane under the objective was between 8 and 34 mW. […]
To test whether NTSR1 receptors are indeed being bound by endogenous ligand in acute slice, we compared NTSR1 distribution in slices treated with the NTSR1 specific antagonist, SR48692 ([Gully et al., 1993]). […] NTSR1-Venus puncta were then quantified in the acquired image projections by counting vesicle-sized particles (Figure 5E). […]

[4] = biological target: NTSR1-RlucII (mouse) (UniProt O88319)
Sequence of NTSR1-RlucII (mouse) (O88319 whole entry): as above

[5] = biological target: NTSR1-Venus (transfected construct) (mouse) (UniProt O88319)
Sequence of NTSR1-Venus (transfected construct) (mouse) (O88319 whole entry): as above

[6] = biological target: mouse NTSR1 (untagged) (mouse) (UniProt O88319)
Sequence of mouse NTSR1 (untagged) (mouse) (O88319 whole entry): as above

[7] = biological target: NTSR1-RlucII (mouse) (UniProt O88319); remark: listed apart in the source
[8] = biological target: NTSR1-Venus (knock-in receptor of Ntsr1 Venus/Venus mice) (mouse) (UniProt O88319)
Sequence of NTSR1-Venus (knock-in receptor of Ntsr1 Venus/Venus mice) (mouse) (O88319 whole entry): as above

Compound: C[C@H](CCC(=O)O)C[C@H](C)C[C@H](C)C(=O)/C=C(\O)[C@H](C)C[C@H](C)C/C=C/[C@@H](C)[C@@H](O)[C@@H](C)[C@@H](O)C[C@@H]1CC[C@@](C)([C@H]2CC[C@@](C)([C@@H](C)O)O2)O1 [Ionomycin, Ionomycin calcium salt from Streptomyces conglobatus]
calcium increase [1]: 3 fold | calcium increase [2]: 3 fold

Compound: COc1cccc(OC)c1-c1cc(C(=O)NC2(C(=O)O)C3CC4CC(C3)CC2C4)nn1-c1ccnc2cc(Cl)ccc12 (stereo not drawn) [SR48692]
NTSR1-Venus puncta across imaging time [3]: trend of decreasing puncta across imaging time

NTSR1-RlucII internalization in HEK293 cells (decrease in ebBRET between NTSR1-RlucII and rGFP-CAAX), concentration-response; potency LogEC50 [4]: -8.07 LogEC50 (M) | Gq activation in HEK293 cells (ebBRET between p63RhoGEF-RlucII and rGFP-CAAX, EMTA), concentration-response; potency LogEC50 [5]: -8.78 LogEC50 (M) | Gq activation in HEK293 cells (ebBRET between p63RhoGEF-RlucII and rGFP-CAAX, EMTA), concentration-response; potency LogEC50 [6]: -8.97 LogEC50 (M) | NTSR1-RlucII internalization in HEK293 cells (decrease in ebBRET between NTSR1-RlucII and rGFP-CAAX), concentration-response; potency as told in the text [7]: 5.89 nM | NTSR1-Venus endocytosis in primary hippocampal neurons (ratio of Venus and EEA1 positive to total EEA1 positive endosomes), dose-response after 5 min of agonist; EC50 [8]: 4.03 nM | NTSR1-Venus redistribution to EEA1 endosomes in primary hippocampal neurons, 1 uM neurotensin, time course 0-60 min; % EEA1 vesicles with Venus (value at 5 min) [8]: 98.5%
Compound: Neurotensin (from UniProt P30990 151-163) (peptide)
